From patent publication US20160058881A1, “PRODRUGS WITH PROLONGED ACTION” (INDIANA UNIVERSITY RESEARCH AND TECHNOLOGY CORPORATION, priority 2013, published 2016)
Non-standard residues stand in square brackets, D forms with d. Groups on a side chain read outwards from the residue. No end group written: not given here. *: point of attachment. Docosanoyl = CCCCCCCCCCCCCCCCCCCCCC(=O)*; Phe(4-NH2) = Nc1ccc(C[C@H](N)C(=O)O)cc1; Aib = CC(C)(N)C(=O)O; Sar = CNCC(=O)O

Assays:
GLP-1 receptor [1] = target: T1, GLP-1 receptor (Homo sapiens, UniProt P43220); experiment: GLP-receptor luciferase bioassay of samples incubated in 20% human plasma (restored activity); type: cell-based; details: 37° C.
Experimental: To explore the possible formation of DKP and simultaneous regeneration of the parent drug, the above-mentioned peptides were incubated in 20% human plasma at 37° C. for approximately 5 days. Samples were collected at different time points (0, 1, 2, and 5 days).

[2] = system: diet induced obese (DIO) mice; experiment: In vivo effects of alternate prodrug injection schemes in DIO mice (Example 7); set-up: species or system mice (strain: C57B16); details: s.c., 40 nmol/kg once, 20 nmol/kg twice, or 10 nmol/kg daily for four days
Experimental: C22 acylated versions of Peptide D were also tested for their in vivo effects in diet induced obese (DIO) mice (strain: C57B16) following alternative administration schedules. Two groups of eight mice (with an initial average body weight of 65 g) were subcutaneously injected once with 40 nmol/kg of Peptide D (parent peptide without acylation and without a dipeptide prodrug moiety), or 40 nmol/kg of a Peptide D with C22 acylation via the dipetide prodrug moiety. Three groups of eight mice were subcutaneously injected twice (1 day between injections, e.g., Monday-Wednesday) with vehicle only, 20 nmol/kg of Peptide D (parent peptide), or 20 nmol/kg of a Peptide D C22 acylated prodrug. Finally, three groups of eight mice were subcutaneously injected daily for four days with vehicle only, 10 nmol/kg of Peptide D (parent peptide), or 10 nmol/kg of a Peptide D C22 acylated prodrug.

[3] = system: diet induced obesity (DIO) mice; experiment: In vivo effects of daily prodrug injection in DIO mice (Example 6); set-up: species or system mice (strain: C57B16); details: s.c. daily for 5 days, 10 nmol/kg
Experimental: C22 acylated versions of Peptide D were also tested for their in vivo effects in diet induced obesity (DIO) mice (strain: C57B16) following daily administrations. Nine groups of eight mice (with an initial average body weight of 65 g) were subcutaneously injected daily for 5 days with vehicle only or 3 nmol/kg or 10 nmol/kg of Peptide D (parent peptide), a Peptide D with C22 acylation via the prodrug dipeptide moiety and Peptide D with a C22 acyl group linked directly to the 4-amino phenylalanine at position 10. The mice were 11 months old and had been on a high fat diet for approximately 2 months. Body weight was monitored for a week following injection and was measured on Day 0, 1, 2, 3, 4 and 7, wherein Day 0 was the day of injection (FIG. 4A, 4B).

GLP-1 receptor [4] = target: T1, GLP-1 receptor; experiment: GLP-1 agonist activity, cAMP production in an in vitro assay; type: cell-based; details: versus glucagon receptor
Text: Receptor activation can be measured by in vitro assays measuring cAMP induction in HEK293 cells over-expressing the receptor, e.g. assaying HEK293 cells co-transfected with DNA encoding the receptor and a luciferase gene linked to cAMP responsive element as described in the examples.

T1 sequence (P43220 24-463): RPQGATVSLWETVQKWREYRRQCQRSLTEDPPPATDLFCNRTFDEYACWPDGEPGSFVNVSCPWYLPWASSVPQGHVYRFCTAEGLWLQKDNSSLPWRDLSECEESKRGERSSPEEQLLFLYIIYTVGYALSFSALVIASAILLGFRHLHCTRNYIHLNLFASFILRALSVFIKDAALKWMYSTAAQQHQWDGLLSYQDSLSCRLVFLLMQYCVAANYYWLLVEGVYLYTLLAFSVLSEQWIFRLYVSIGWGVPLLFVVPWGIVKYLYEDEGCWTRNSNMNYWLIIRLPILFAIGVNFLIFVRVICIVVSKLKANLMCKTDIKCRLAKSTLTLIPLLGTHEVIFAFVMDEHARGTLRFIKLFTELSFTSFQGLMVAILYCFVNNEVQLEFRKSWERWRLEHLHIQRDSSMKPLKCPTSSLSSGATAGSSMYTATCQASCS

Substance | Restored (activity relative to parent peptide) (GLP-1 receptor [1]; 0 d) | Change of activity over the time points in plasma (GLP-1 receptor [1]; 0 to 5 d) | Restored (activity relative to parent peptide) (GLP-1 receptor [1]; 1 d) | Restored (activity relative to parent peptide) (GLP-1 receptor [1]; 5 d) | Body weight (weight loss compared to the parent peptide) [2] | Body weight ([3]; after last injection on day 4 to day 7) | Body weight ([3]; through day 4) | selectivity for the GLP-1 receptor (GLP-1 receptor [4])
C22 attached to position 10 (via A-B prodrug): Peptide D with (d)Lysine-sarcosine dipeptide on 4-amino group of phenylalanine at position 10, C22 acyl on epsilon amino of (d)Lysine (F[Aib]EGTFTSD[Phe(4-NH2)]([Sar-dK-Docosanoyl])SIYLDKQAA[Aib]EFVNWLLAGGPSSGAPPPS; not fully specified (C-terminus)) | Restored 36% | Activity Restored | Restored 57% | Restored 87% | more total and sustained weight loss | continued to lose weight through day 7 | caused the most weight loss | –
SEQ ID NO: 22: glucagon analog substituting the native glutamine at position 3 with glutamic acid | – | – | – | – | – | – | – | approximately a tenfold selectivity for the GLP-1 receptor
